Data reported in patent US20190249188A1 (WHITEHEAD INSTITUTE FOR BIOMEDICAL RESEARCH, published 2019).

Target: the molecule itself
Assay: X-ray crystallography, BAR/acetyl-CoA and BAR/CoA/phosphinothricin complexes
Description: BAR protein was incubated with 1 mM acetyl-CoA for >2 hour prior to setting crystal trays. Crystals of BAR were obtained after 3 days at 20° C. in hanging drops containing 1 μL of protein solution (7.5 mg/ml) and 1 μL of reservoir solution (0.18 M calcium acetate, 0.1 M Tris-HCl pH 7, 18% (w/v) PEG 3000, 0.2% N-nonyl β-D-glucopyranoside, 1 mM acetyl-CoA). Several crystals were soaked in reservoir solution supplemented with 30 mM L-phosphinothricin for 30-60 min before freezing. Crystals were frozen in reservoir solution supplemented with 15% ethylene glycol. […] Co-crystallization screens and soaking experiments were performed using aminoadipate and tryptophan at final concentrations between 5-30 mM. However, we could not identify electron density supporting the presence of these substrates within the resolved crystal structures.
X-ray diffraction data were collected on the 24-ID-C beam line of the Structural Biology Center at the Advanced Photon Source (Argonne National Laboratory) equipped with a Pixel Array Detector (Pilatus-6MF). […] Initial phases were determined by molecular replacement using Phaser under Phenix (Adams, P. D. et al., Acta Crystallographica. Section D, Biological Crystallo. 66, 213-221, (2010)). […]

B1: Wildtype bialaphos resistance (BAR) protein from Streptomyces hygroscopicus (enzyme)
chain: MSPERRPADIRRATEADMPAVCTIVNHYIETSTVNFRTEPQEPQEWTDDLVRLRERYPWLVAEVDGEVAGIAYAGPWKARNAYDWTAESTVYVSPRHQRTGLGSTLYTHLLKSLEAQGFKSVVAVIGLPNDPSVRMHEALGYAPRGMLRAAGFKHGNWHDVGFWQLDFSLPVPPRPVLPVTEI
notes: the entries describe its self-association into a homodimer in the crystal; Expressed in E. coli from pProEX Hta as 6xHis-BAR; Crystallised with acetyl-CoA, or with CoA and phosphinothricin; also called WT BAR; wild-type BAR
B1: binds.
